± gives the uncertainty stated by the source.
B1: Homeobox protein cut-like 2, residues 895 to 963; numbered along this chain, O14529 (parent)
chain: EVDTLELTRQVKEKLAKNGICQRIFGEKVLGLSQGSVSDMLSRPKPWSKLTQKGREPFIRMQLWLSDQL

Variants of: B1
Assay: abundance fitness (aPCA) (normalised: wild type 0, dead -1); higher = more abundant; growth selection in yeast, the domain comes from the species named
Details: Homo sapiens
In the case of L41R, the abundance fitness is reported as -0.226 ± 0.051.
In the case of I24M, the abundance fitness is reported as -0.023 ± 0.037.
T8I showed an abundance fitness of -0.107 ± 0.044.
Variant C21D has an abundance fitness of -0.103 ± 0.099.
Work on E6K yielded an abundance fitness of -0.035 ± 0.045.
K12Y showed an abundance fitness of -0.528 ± 0.058.
Work on L30S yielded an abundance fitness of -0.418 ± 0.049.
K45H gave an abundance fitness of -0.288 ± 0.083.
Work on G31K yielded an abundance fitness of -0.129 ± 0.076.
For E6A, the abundance fitness was -0.123 ± 0.052.
Work on S33M yielded an abundance fitness of 0.053 ± 0.05.
L41D gave an abundance fitness of -0.353 ± 0.18.
In the case of S33P, the abundance fitness is reported as 0.03 ± 0.032.
F58E gave an abundance fitness of -0.763 ± 0.14.
Work on R43S yielded an abundance fitness of 0.064 ± 0.029.
In the case of K28I, the abundance fitness is reported as -0.502 ± 0.055.
Q10Y showed an abundance fitness of -0.313 ± 0.05.
Q52E gave an abundance fitness of -0.016 ± 0.067.
For P57F, the abundance fitness was -0.028 ± 0.051.
T51E showed an abundance fitness of -0.403 ± 0.056.
L5V showed an abundance fitness of 0.015 ± 0.026.
In the case of P57D, the abundance fitness is reported as -0.085 ± 0.17.
Variant L50Q has an abundance fitness of -0.874 ± 0.068.
In the case of S38Q, the abundance fitness is reported as 0.03 ± 0.025.
With R9L the abundance fitness was -0.162 ± 0.028.
L7N showed an abundance fitness of 0.034 ± 0.089.
P44A showed an abundance fitness of -0.103 ± 0.038.
In the case of L5F, the abundance fitness is reported as 0.025 ± 0.042.
Work on L7I yielded an abundance fitness of -0.058 ± 0.067.
In the case of D39Q, the abundance fitness is reported as 0.005 ± 0.096.
Q62C gave an abundance fitness of -0.263 ± 0.075.
Work on E6M yielded an abundance fitness of -0.192 ± 0.035.
For T4L, the abundance fitness was -0.215 ± 0.027.
For I20F, the abundance fitness was -0.058 ± 0.04.
P46M gave an abundance fitness of -0.214 ± 0.06.
Variant N18A has an abundance fitness of -0.119 ± 0.044.
For Q62G, the abundance fitness was -0.06 ± 0.039.
With Q62I the abundance fitness was -0.277 ± 0.11.
With K53G the abundance fitness was -0.309 ± 0.045.
In the case of E6F, the abundance fitness is reported as -0.192 ± 0.053.
For R60T, the abundance fitness was -0.209 ± 0.033.
In the case of K17A, the abundance fitness is reported as -0.086 ± 0.046.
In the case of E27S, the abundance fitness is reported as -0.006 ± 0.032.
R23A gave an abundance fitness of -0.106 ± 0.039.
In the case of D39V, the abundance fitness is reported as -0.389 ± 0.14.
L32W showed an abundance fitness of -0.043 ± 0.063.
In the case of L65K, the abundance fitness is reported as -0.726 ± 0.045.
In the case of S48L, the abundance fitness is reported as -0.191 ± 0.027.
Variant T8F has an abundance fitness of -0.143 ± 0.04.
With E13M the abundance fitness was -0.008 ± 0.031.
Variant K28V has an abundance fitness of -0.184 ± 0.035.
R9G showed an abundance fitness of -0.129 ± 0.026.
In the case of F58W, the abundance fitness is reported as -0.111 ± 0.046.
With R60A the abundance fitness was -0.27 ± 0.067.
With Q52I the abundance fitness was -0.06 ± 0.086.
E6C gave an abundance fitness of -0.231 ± 0.042.
With R43I the abundance fitness was -0.329 ± 0.066.
Variant E27D has an abundance fitness of -0.162 ± 0.046.
Variant K17S has an abundance fitness of -0.208 ± 0.051.
Variant D67E has an abundance fitness of -0.017 ± 0.12.
For L65H, the abundance fitness was -0.696 ± 0.08.
With D67N the abundance fitness was -0.07 ± 0.13.
Variant Q52K has an abundance fitness of 0.094 ± 0.084.
Variant K28T has an abundance fitness of -0.078 ± 0.033.
Work on L63Q yielded an abundance fitness of 0.078 ± 0.038.
M40S gave an abundance fitness of -0.201 ± 0.038.
Work on F58A yielded an abundance fitness of -0.917 ± 0.06.
For K45V, the abundance fitness was -0.083 ± 0.034.
In the case of R43T, the abundance fitness is reported as -0.162 ± 0.036.
With S48W the abundance fitness was -0.387 ± 0.079.
For K28G, the abundance fitness was -0.184 ± 0.035.
S42L gave an abundance fitness of -0.086 ± 0.026.
With K14G the abundance fitness was -0.589 ± 0.16.
G54P showed an abundance fitness of -0.581 ± 0.041.
With D67K the abundance fitness was -0.037 ± 0.078.
Work on I24H yielded an abundance fitness of 0.007 ± 0.085.
In the case of G19S, the abundance fitness is reported as -0.01 ± 0.062.
Q34S gave an abundance fitness of -0.028 ± 0.031.
W64N gave an abundance fitness of -0.678 ± 0.28.
Work on L15S yielded an abundance fitness of -0.087 ± 0.053.
Work on Q52W yielded an abundance fitness of -0.187 ± 0.052.
P46S gave an abundance fitness of -0.093 ± 0.027.
P57I showed an abundance fitness of 0.044 ± 0.041.
Variant T8C has an abundance fitness of -0.022 ± 0.035.
Work on S42Y yielded an abundance fitness of -0.075 ± 0.04.
Work on E56K yielded an abundance fitness of -0.156 ± 0.091.
For A16L, the abundance fitness was -0.109 ± 0.028.
For I59A, the abundance fitness was -0.079 ± 0.039.
Variant E27Y has an abundance fitness of -0.191 ± 0.046.
Work on D67I yielded an abundance fitness of -0.603 ± 0.074.
Variant V11S has an abundance fitness of -0.166 ± 0.037.
In the case of C21W, the abundance fitness is reported as -0.104 ± 0.035.
L30V gave an abundance fitness of -0.275 ± 0.03.
L32E showed an abundance fitness of -0.227 ± 0.13.
In the case of A16R, the abundance fitness is reported as 0.036 ± 0.031.
With R23T the abundance fitness was -0.155 ± 0.044.
K12H gave an abundance fitness of -0.354 ± 0.11.
In the case of R60E, the abundance fitness is reported as -0.631 ± 0.19.
For V2N, the abundance fitness was -0.136 ± 0.077.
Variant I20H has an abundance fitness of -0.382 ± 0.052.
K14S showed an abundance fitness of -0.154 ± 0.057.
With V37E the abundance fitness was -0.436 ± 0.087.
Work on L65D yielded an abundance fitness of -0.841 ± 0.27.
K45T showed an abundance fitness of -0.149 ± 0.055.
Variant S36Q has an abundance fitness of 0.15 ± 0.032.
V11E gave an abundance fitness of -0.192 ± 0.039.
Work on V37H yielded an abundance fitness of -0.378 ± 0.048.
A16M gave an abundance fitness of -0.048 ± 0.037.
With M40K the abundance fitness was -0.02 ± 0.074.
Variant P46N has an abundance fitness of -0.223 ± 0.049.
Work on T4P yielded an abundance fitness of -0.179 ± 0.039.
With S48C the abundance fitness was -0.003 ± 0.075.
For M40N, the abundance fitness was -0.473 ± 0.21.
Variant R55I has an abundance fitness of -0.684 ± 0.066.
Variant I24Y has an abundance fitness of 0.097 ± 0.059.
With I20W the abundance fitness was -0.11 ± 0.077.
For S38E, the abundance fitness was 0.106 ± 0.036.
Work on M61S yielded an abundance fitness of -0.606 ± 0.037.
In the case of K17R, the abundance fitness is reported as -0.089 ± 0.055.
Work on K53H yielded an abundance fitness of -0.194 ± 0.063.
Work on T51P yielded an abundance fitness of -0.355 ± 0.035.
With D39C the abundance fitness was -0.15 ± 0.26.
In the case of F25A, the abundance fitness is reported as -0.827 ± 0.079.
In the case of K28N, the abundance fitness is reported as -0.242 ± 0.049.
Variant D67L has an abundance fitness of -0.389 ± 0.028.
With G35E the abundance fitness was 0.135 ± 0.045.
In the case of G26P, the abundance fitness is reported as -0.219 ± 0.16.
Variant E13F has an abundance fitness of -0.182 ± 0.034.
Variant Q34W has an abundance fitness of 0.088 ± 0.15.
Variant T4M has an abundance fitness of 0.037 ± 0.03.
S36L gave an abundance fitness of 0.021 ± 0.025.
D3F gave an abundance fitness of -0.139 ± 0.047.
Work on Q62R yielded an abundance fitness of 0.015 ± 0.029.
With W64Q the abundance fitness was -0.907 ± 0.066.
Work on L69I yielded an abundance fitness of -0.221 ± 0.11.
For L50V, the abundance fitness was -0.522 ± 0.045.
For S33G, the abundance fitness was -0.03 ± 0.033.
In the case of L63C, the abundance fitness is reported as -0.127 ± 0.09.
For M61F, the abundance fitness was -0.157 ± 0.072.
With G19Q the abundance fitness was -0.242 ± 0.07.
W64Y gave an abundance fitness of -0.372 ± 0.092.
In the case of A16T, the abundance fitness is reported as -0.062 ± 0.04.
In the case of K14V, the abundance fitness is reported as -0.03 ± 0.037.
With G31M the abundance fitness was -0.347 ± 0.068.
For Q68E, the abundance fitness was -0.014 ± 0.039.
In the case of L65I, the abundance fitness is reported as -0.278 ± 0.065.
S66P gave an abundance fitness of -0.998 ± 0.046.
Work on L63P yielded an abundance fitness of -0.728 ± 0.033.
Q22L gave an abundance fitness of -0.003 ± 0.032.
With M61K the abundance fitness was -1.05 ± 0.16.
In the case of I59Q, the abundance fitness is reported as 0.031 ± 0.036.
M40G gave an abundance fitness of -0.298 ± 0.077.
For G26A, the abundance fitness was 0.082 ± 0.065.
L30R showed an abundance fitness of -0.18 ± 0.037.
Variant Q10S has an abundance fitness of -0.155 ± 0.03.
For F58T, the abundance fitness was -1.11 ± 0.096.
Variant T4C has an abundance fitness of -0.3 ± 0.073.
In the case of P46I, the abundance fitness is reported as -0.071 ± 0.046.
L63H gave an abundance fitness of 0.012 ± 0.04.
For G26D, the abundance fitness was -0.306 ± 0.084.
For Q22N, the abundance fitness was -0.461 ± 0.14.
Work on C21E yielded an abundance fitness of -0.04 ± 0.043.
E1T gave an abundance fitness of -0.247 ± 0.075.
Work on D3K yielded an abundance fitness of -0.203 ± 0.032.
For D67M, the abundance fitness was -0.25 ± 0.04.
Variant I24C has an abundance fitness of -0.243 ± 0.042.
In the case of F25R, the abundance fitness is reported as -0.568 ± 0.067.

— the Human Domainome abundance scans (Beltran et al. 2025)
